B1: gephyrin from liver tissue (natural protein, UniProt Q03555 1-768, looked up)
chain: MATEGMILTNHDHQIRVGVLTVSDSCFRNLAEDRSGINLKDLVQDPSLLGGTISAYKIVPDEIEEIKETLIDWCDEKELNLILTTGGTGFAPRDVTPEKFPTFPFCGLQKGATKEVIEREAPGMALAMLMGSLNVTPLGMLSRPVCGIRGKTLIINLPGSKKGSQECFQFILPALPHAIDLLRDAIVKVKEVHDELEDLPSPPPPLSPPPTTSPHKQTEDKGVQCEEEEEEKKDSGVASTEDSSSSHITAAALAAKIPDSIISRGVQVLPRDTASLSTTPSESPRAQATSRLSTASCPTPKQIRRPDESKGVASRVGSLKVQSRCSSKENILRASHSAVDITKVARRHRMSPFPLTSMDKAFITVLEMTPVLGTEIINYRDGMGRVLAQDVYAKDNLPPFPASVKDGYAVRAADGPGDRFIIGESQAGEQPTQTVMPGQVMRVTTGAPIPCGADAVVQVEDTELIRESDDGTEELEVRILVQARPGQDIRPIGHDIKRGECVLAKGTHMGPSEIGLLATVGVTEVEVNKFPVVAVMSTGNELLNPEDDLLPGKIRDSNRSTLLATIQEHGYPTINLGIVGDNPDDLLNALNEGISRADVIITSGGVSMGEKDYLKQVLDIDLHAQIHFGRVFMKPGLPTTFATLDIDGVRKIIFALPGNPVSAVVTCNLFVVPALRKMQGILDPRPTIIKARLSCDVKLDPRPEYHRCILTWHHQEPLPWAQSTGNQMSSRLMSMRSANGLLMLPPKTEQYVELHKGEVVDVMVIGRL
notes: gephyrin endogenous in liver tissue; source: endogenous, liver protein extract
B2: gephyrin, endogenous in HEK293T cells (natural protein, human (endogenous in HEK293T), UniProt Q9NQX3 1-736, looked up)
chain: MATEGMILTNHDHQIRVGVLTVSDSCFRNLAEDRSGINLKDLVQDPSLLGGTISAYKIVPDEIEEIKETLIDWCDEKELNLILTTGGTGFAPRDVTPEATKEVIEREAPGMALAMLMGSLNVTPLGMLSRPVCGIRGKTLIINLPGSKKGSQECFQFILPALPHAIDLLRDAIVKVKEVHDELEDLPSPPPPLSPPPTTSPHKQTEDKGVQCEEEEEEKKDSGVASTEDSSSSHITAAAIAAKIPDSIISRGVQVLPRDTASLSTTPSESPRAQATSRLSTASCPTPKVQSRCSSKENILRASHSAVDITKVARRHRMSPFPLTSMDKAFITVLEMTPVLGTEIINYRDGMGRVLAQDVYAKDNLPPFPASVKDGYAVRAADGPGDRFIIGESQAGEQPTQTVMPGQVMRVTTGAPIPCGADAVVQVEDTELIRESDDGTEELEVRILVQARPGQDIRPIGHDIKRGECVLAKGTHMGPSEIGLLATVGVTEVEVNKFPVVAVMSTGNELLNPEDDLLPGKIRDSNRSTLLATIQEHGYPTINLGIVGDNPDDLLNALNEGISRADVIITSGGVSMGEKDYLKQVLDIDLHAQIHFGRVFMKPGLPTTFATLDIDGVRKIIFALPGNPVSAVVTCNLFVVPALRKMQGILDPRPTIIKARLSCDVKLDPRPEYHRCILTWHHQEPLPWAQSTGNQMSSRLMSMRSANGLLMLPPKTEQYVELHKGEVVDVMVIGRL
notes: human gephyrin, endogenous in HEK293T cells; also called endogenous gephyrin; source: endogenous, HEK293T protein extract (cytosol)
B3: gephyrin, endogenous in U2OS cells (natural protein, human (endogenous in U2OS), UniProt Q9NQX3 1-736, looked up)
chain: B2 chain
notes: human gephyrin, endogenous in U2OS osteosarcoma cells; also called endogenous gephyrin; source: endogenous, U2OS protein extract (cytosol)

How the values were obtained:
[1] = target: microtubules polymerized from endogenous tubulin of HEK293T cell extracts (human (endogenous in HEK293T)) (UniProt P68363); assay: co-sedimentation; MT co-sedimentation assay with HEK293T lysates only (gephyrin alone, gephyrin or mutant gephyrin with CbII(-SH3)); endogenous cellular tubulin polymerized with 2 mM GTP and 20 uM paclitaxel in MES buffer; 100,000 x g; immunoblot with mAb7a, R-20, DM1alpha; band ratios standardized to the tubulin signal
microtubules polymerized from endogenous tubulin of HEK293T cell extracts (human (endogenous in HEK293T)), sequence (P68363 whole entry, chain 1 of 2): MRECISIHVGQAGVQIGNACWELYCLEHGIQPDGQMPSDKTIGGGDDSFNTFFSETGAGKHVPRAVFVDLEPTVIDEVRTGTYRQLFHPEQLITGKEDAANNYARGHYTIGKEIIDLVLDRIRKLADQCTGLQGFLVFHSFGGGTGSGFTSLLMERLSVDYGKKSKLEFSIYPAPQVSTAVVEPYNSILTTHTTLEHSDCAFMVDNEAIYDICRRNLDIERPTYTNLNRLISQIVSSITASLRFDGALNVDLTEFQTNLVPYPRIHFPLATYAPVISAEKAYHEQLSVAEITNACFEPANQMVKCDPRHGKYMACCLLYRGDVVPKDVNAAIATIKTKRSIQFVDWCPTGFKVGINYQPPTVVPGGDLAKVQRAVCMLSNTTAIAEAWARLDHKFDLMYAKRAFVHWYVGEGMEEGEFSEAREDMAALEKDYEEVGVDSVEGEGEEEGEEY
microtubules polymerized from endogenous tubulin of HEK293T cell extracts (human (endogenous in HEK293T)), sequence (P07437 whole entry, chain 2 of 2, further chain): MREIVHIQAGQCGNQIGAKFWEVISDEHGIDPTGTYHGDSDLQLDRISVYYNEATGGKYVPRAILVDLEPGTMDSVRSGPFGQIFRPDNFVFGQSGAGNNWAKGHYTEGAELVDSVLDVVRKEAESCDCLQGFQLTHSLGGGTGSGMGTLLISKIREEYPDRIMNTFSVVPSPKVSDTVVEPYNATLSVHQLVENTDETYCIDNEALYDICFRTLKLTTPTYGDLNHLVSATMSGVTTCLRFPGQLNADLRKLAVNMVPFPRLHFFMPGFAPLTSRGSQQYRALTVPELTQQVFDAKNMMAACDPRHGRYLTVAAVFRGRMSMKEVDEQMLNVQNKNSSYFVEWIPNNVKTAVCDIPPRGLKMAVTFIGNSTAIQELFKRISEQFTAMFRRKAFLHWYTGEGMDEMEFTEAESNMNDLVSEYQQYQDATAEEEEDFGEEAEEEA

[2] = target: the molecule itself; assay: native gel or EMSA; blue-native PAGE of 100 ug cytosol per lane, second dimension 12.5% SDS-PAGE, Western blot for gephyrin; NativeMARK standard

| Molecule | ratio of the mAb7a signal in the insoluble to soluble fraction [1] | stoichiometry N [2] |
| --- | --- | --- |
| recombinant gephyrin (P1), N-terminally 6-histidine-tagged (natural protein) | 1.5 |  |
| recombinant gephyrin (P1) phosphorylated at Ser270 (detected by mAb7a) (natural protein) | 0.17 |  |
| B1 |  | 6 |
| B2 |  | 6 |
| B3 |  | 6 |
